Reference: publication PMC5209733, “U24 from Roseolovirus interacts strongly with Nedd4 WW Domains” (Scientific Reports, 2017)

How the values were obtained:
Fyn SH3 (Homo sapiens) = Fyn SH3 (Homo sapiens) (UniProt P06241); settings: cited from earlier work
[1] = molecular target: hNedd4L-WW3* domain (third WW domain of human Nedd4-like protein, GST tag removed) (human) (UniProt Q96PU5); assay: ITC; peptide titrated into the cleaved WW domain (40 to 150 uM) in the cell; 10 mM sodium phosphate, pH 7.4, 25 °C; MicroCal VP-ITC; bimolecular interaction model; three runs (further runs with 100 mM and 500 mM NaCl told in words only)
[2] = molecular target: hNedd4-WW3* domain (third WW domain of human Nedd4, GST tag removed) (human) (UniProt P46934); assay: as above
[3] = molecular target: rNedd4-WW2 domain (second WW domain of rat Nedd4, GST tag removed) (rat) (UniProt Q62940); assay: as above
[4] = molecular target: rNedd4-WW3/4 domain (third WW domain of rat Nedd4, GST tag removed) (rat) (UniProt Q62940); assay: as above
rNedd4-WW3/4 domain (third WW domain of rat Nedd4, GST tag removed) (rat), sequence (Q62940 452-499): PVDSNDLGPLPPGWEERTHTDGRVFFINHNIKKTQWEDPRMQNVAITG

rNedd4-WW2 domain (second WW domain of rat Nedd4, GST tag removed) (rat), sequence (Q62940 whole entry, the tested form may be a part): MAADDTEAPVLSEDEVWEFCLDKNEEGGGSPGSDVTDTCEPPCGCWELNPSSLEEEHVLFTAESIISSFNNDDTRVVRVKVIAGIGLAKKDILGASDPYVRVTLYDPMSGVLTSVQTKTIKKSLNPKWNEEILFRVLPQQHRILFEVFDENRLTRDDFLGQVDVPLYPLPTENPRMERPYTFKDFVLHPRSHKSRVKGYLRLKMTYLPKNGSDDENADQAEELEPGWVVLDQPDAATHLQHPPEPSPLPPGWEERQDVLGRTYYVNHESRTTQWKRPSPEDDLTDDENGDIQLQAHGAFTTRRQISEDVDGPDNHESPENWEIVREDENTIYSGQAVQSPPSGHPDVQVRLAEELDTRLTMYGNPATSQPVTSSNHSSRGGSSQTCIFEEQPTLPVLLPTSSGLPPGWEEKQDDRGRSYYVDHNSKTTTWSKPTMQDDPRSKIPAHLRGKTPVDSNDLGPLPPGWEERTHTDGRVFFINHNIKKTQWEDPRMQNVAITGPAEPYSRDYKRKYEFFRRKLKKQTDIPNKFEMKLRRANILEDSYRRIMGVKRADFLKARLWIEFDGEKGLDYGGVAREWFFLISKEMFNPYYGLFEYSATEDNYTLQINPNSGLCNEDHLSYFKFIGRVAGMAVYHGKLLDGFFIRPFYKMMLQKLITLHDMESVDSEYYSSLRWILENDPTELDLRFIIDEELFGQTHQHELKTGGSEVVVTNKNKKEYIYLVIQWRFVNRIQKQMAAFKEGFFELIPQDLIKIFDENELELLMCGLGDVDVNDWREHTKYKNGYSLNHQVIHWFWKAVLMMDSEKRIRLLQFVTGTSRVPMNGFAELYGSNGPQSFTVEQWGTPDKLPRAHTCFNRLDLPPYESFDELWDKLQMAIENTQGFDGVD
hNedd4-WW3* domain (third WW domain of human Nedd4, GST tag removed) (human), sequence (P46934 whole entry, the tested form may be a part): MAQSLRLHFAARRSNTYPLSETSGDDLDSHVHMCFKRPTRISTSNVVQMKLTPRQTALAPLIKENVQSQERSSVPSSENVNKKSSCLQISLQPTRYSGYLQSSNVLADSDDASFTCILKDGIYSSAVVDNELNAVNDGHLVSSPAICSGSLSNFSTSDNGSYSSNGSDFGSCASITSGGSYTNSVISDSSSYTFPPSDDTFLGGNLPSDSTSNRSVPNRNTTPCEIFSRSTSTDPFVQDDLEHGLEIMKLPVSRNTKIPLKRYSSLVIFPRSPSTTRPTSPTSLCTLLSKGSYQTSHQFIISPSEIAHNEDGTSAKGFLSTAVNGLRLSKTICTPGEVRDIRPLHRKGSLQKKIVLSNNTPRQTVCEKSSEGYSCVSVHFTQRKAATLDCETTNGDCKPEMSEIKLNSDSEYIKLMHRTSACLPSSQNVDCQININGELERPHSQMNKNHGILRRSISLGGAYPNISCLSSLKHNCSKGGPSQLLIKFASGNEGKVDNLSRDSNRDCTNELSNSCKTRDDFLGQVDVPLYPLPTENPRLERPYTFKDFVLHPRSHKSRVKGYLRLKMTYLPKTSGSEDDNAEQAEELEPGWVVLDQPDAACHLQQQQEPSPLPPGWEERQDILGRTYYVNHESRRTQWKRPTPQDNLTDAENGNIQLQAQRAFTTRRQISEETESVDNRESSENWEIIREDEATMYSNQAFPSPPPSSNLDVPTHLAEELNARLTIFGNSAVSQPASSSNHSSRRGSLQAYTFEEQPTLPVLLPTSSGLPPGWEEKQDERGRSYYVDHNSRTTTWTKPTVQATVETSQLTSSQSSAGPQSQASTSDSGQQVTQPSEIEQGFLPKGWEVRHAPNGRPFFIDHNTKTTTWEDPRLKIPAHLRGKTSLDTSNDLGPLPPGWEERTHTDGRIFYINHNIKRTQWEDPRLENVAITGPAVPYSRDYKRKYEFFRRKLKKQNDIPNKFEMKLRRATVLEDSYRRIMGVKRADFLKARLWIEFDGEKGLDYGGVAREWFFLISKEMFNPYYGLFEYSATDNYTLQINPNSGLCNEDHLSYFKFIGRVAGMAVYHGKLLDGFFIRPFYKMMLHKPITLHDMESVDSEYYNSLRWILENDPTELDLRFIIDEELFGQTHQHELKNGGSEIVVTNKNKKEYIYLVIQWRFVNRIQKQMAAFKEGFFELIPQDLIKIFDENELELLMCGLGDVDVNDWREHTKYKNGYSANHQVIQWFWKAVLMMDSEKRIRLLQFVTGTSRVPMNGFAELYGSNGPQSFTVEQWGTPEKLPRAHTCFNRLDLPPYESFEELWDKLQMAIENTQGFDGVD
hNedd4L-WW3* domain (third WW domain of human Nedd4-like protein, GST tag removed) (human), sequence (Q96PU5 496-539): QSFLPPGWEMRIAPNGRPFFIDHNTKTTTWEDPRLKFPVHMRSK
Fyn SH3 (Homo sapiens), sequence (P06241 79-146): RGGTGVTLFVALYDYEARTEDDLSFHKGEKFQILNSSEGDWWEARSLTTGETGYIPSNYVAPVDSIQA

Kd [1] | dH [1] | Substance | Kd (Fyn SH3 (Homo sapiens)) | Kd [2] | dH [2] | Kd [3] | dH [3] | Kd [4] | dH [4]
 |  | U24-6A (from UniProt Q69559) | 5000 µM |  |  |  |  |  | 
4 µM | -13.8 kcal/mol | Nogo-A PY motif peptide |  |  |  |  |  |  | 
 |  | U24-7 peptide (15-mer, N-terminus of U24 from HHV-7) |  | 1.98 µM | -16.8 kcal/mol | 87 µM | -18.2 kcal/mol | 21 µM | -15.2 kcal/mol
 |  | U24-6A peptide (15-mer, N-terminus of U24 from HHV-6A) (from UniProt Q69559 1-15) |  | 9.7 µM | -12.7 kcal/mol | 155 µM | -12.9 kcal/mol |  | 
